In the supplement of paper PMC5998384:

Legend:
HeLa Kyoto [1] = test: thermal stability score vs G1/S (z-score of summed log2 fold changes over temperatures); higher = more thermally stable than in G1/S
HeLa Kyoto [2] = test: melting temperature (median over replicates), in situ; higher = more thermally stable
HeLa Kyoto [3] = test: solubility in G1/S (NP-40 vs SDS abundance) (log2 ratio); higher = more soluble; details: cell cycle stage: G1/S
HeLa Kyoto [4] = test: solubility change mitosis vs G1/S (difference of NP-40 vs SDS log2 ratios) (log2 ratio difference); higher = more soluble in mitosis
[5] = cell cycle stage: early G1 (4.5 h after nocodazole release)
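For melting temperature (median over replicates), in situ in this document: HeLa Kyoto cells synchronized by double thymidine or nocodazole block, proteins quantified by TMT10plex mass spectrometry, three independent biological replicates.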
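For solubility change mitosis vs G1/S (difference of NP-40 vs SDS log2 ratios) in this document: synchronized HeLa Kyoto cells (double thymidine block for G1/S, nocodazole release for mitosis), protein amounts in NP-40 versus SDS lysates quantified by mass spectrometry, three biological replicates.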
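For solubility in G1/S (NP-40 vs SDS abundance) in this document: HeLa Kyoto cells arrested at G1/S by double thymidine block, proteins quantified by TMT10plex mass spectrometry in mild NP-40 versus SDS extracts, three biological replicates.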
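For thermal stability score vs G1/S (z-score of summed log2 fold changes over temperatures) in this document: synchronized HeLa Kyoto cells, proteins quantified by TMT10plex mass spectrometry, three biological replicates, mitosis taken 0.5 h after nocodazole release, G1/S directly after double thymidine block.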

| Sequence | thermal stability score (HeLa Kyoto [1]; [5]) | thermal stability score (HeLa Kyoto [1]; cell cycle stage: mitosis) | melting temperature (HeLa Kyoto [2]; cell cycle stage: G1/S) | melting temperature (HeLa Kyoto [2]; cell cycle stage: mitosis) | solubility in G1/S (log2) (HeLa Kyoto [3]) | solubility change mitosis (log2) (HeLa Kyoto [4]) |
| --- | --- | --- | --- | --- | --- | --- |
| MAQVAMSTLPVEDEESSESRMVVTFLMSALESMCKELAKSKAEVACIAVYETDVFVVGTERGRAFVNTRKDFQKDFVKYCVEEEEKAAEMHKMKSTTQANRMSVDAVEIETLRKTVEDYFCFCYGKALGKSTVVPVPYEKMLRDQSAVVVQGLPEGVAFKHPENYDLATLKWILENKAGISFIIKRPFLEPKKHVGGRVMVTDADRSILSPGGSCGPIKVKTEPTEDSGISLEMAAVTVKEESEDPDYYQYNIQAGPSETDDVDEKQPLSKPLQGSHHSSEGNEGTEMEVPAEDSTQHVPSETSEDPEVEVTIEDDDYSPPSKRPKANELPQPPVPEPANAGKRKVREFNFEKWNARITDLRKQVEELFERKYAQAIKAKGPVTIPYPLFQSHVEDLYVEGLPEGIPFRRPSTYGIPRLERILLAKERIRFVIKKHELLNSTREDLQLDKPASGVKEEWYARITKLRKMVDQLFCKKFAEALGSTEAKAVPYQKFEAHPNDLYVEGLPENIPFRSPSWYGIPRLEKIIQVGNRIKFVIKRPELLTHSTTEVTQPRTNTPVKEDWNVRITKLRKQVEEIFNLKFAQALGLTEAVKVPYPVFESNPEFLYVEGLPEGIPFRSPTWFGIPRLERIVRGSNKIKFVVKKPELVISYLPPGMASKINTKALQSPKRPRSPGSNSKVPEIEVTVEGPNNNNPQTSAVRTPTQTNGSNVPFKPRGREFSFEAWNAKITDLKQKVENLFNEKCGEALGLKQAVKVPFALFESFPEDFYVEGLPEGVPFRRPSTFGIPRLEKILRNKAKIKFIIKKPEMFETAIKESTSSKSPPRKINSSPNVNTTASGVEDLNIIQVTIPDDDNERLSKVEKARQLREQVNDLFSRKFGEAIGMGFPVKVPYRKITINPGCVVVDGMPPGVSFKAPSYLEISSMRRILDSAEFIKFTVIRPFPGLVINNQLVDQSESEGPVIQESAEPSQLEVPATEEIKETDGSSQIKQEPDPTW [GTF2I] | 6.54 | 16.3 | 45.4 °C | 48.5 °C | 0.0586 | 0.0472 |
| MARAAALLPSRSPPTPLLWPLLLLLLLETGAQDVRVQVLPEVRGQLGGTVELPCHLLPPVPGLYISLVTWQRPDAPANHQNVAAFHPKMGPSFPSPKPGSERLSFVSAKQSTGQDTEAELQDATLALHGLTVEDEGNYTCEFATFPKGSVRGMTWLRVIAKPKNQAEAQKVTFSQDPTTVALCISKEGRPPARISWLSSLDWEAKETQVSGTLAGTVTVTSRFTLVPSGRADGVTVTCKVEHESFEEPALIPVTLSVRYPPEVSISGYDDNWYLGRTDATLSCDVRSNPEPTGYDWSTTSGTFPTSAVAQGSQLVIHAVDSLFNTTFVCTVTNAVGMGRAEQVIFVRETPNTAGAGATGGIIGGIIAAIIATAVAATGILICRQQRKEQTLQGAEEDEDLEGPPSYKPPTPKAKLEAQEMPSQLFTLGASEHSPLKTPYFDAGASCTEQEMPRYHELPTLEERSGPLHPGATSLGSPIPVPPGPPAVEDVSLDLEDEEGEEEEEYLDKINPIYDALSYSSPSDSYQGKGFVMSRAMYV [PVRL2] | -2.1 | -3.87 | 56.9 °C | 55.4 °C | 0.108 | 0.0111 |
| MARAMAAAWPLLLVALLVLSWPPPGTGDVVVQAPTQVPGFLGDSVTLPCYLQVPNMEVTHVSQLTWARHGESGSMAVFHQTQGPSYSESKRLEFVAARLGAELRNASLRMFGLRVEDEGNYTCLFVTFPQGSRSVDIWLRVLAKPQNTAEVQKVQLTGEPVPMARCVSTGGRPPAQITWHSDLGGMPNTSQVPGFLSGTVTVTSLWILVPSSQVDGKNVTCKVEHESFEKPQLLTVNLTVYYPPEVSISGYDNNWYLGQNEATLTCDARSNPEPTGYNWSTTMGPLPPFAVAQGAQLLIRPVDKPINTTLICNVTNALGARQAELTVQVKEGPPSEHSGISRNAIIFLVLGILVFLILLGIGIYFYWSKCSREVLWHCHLCPSSTEHASASANGHVSYSAVSRENSSSQDPQTEGTR [PVR] | -1.4 | -2.91 | 55 °C | 55 °C | 0.109 | 0.164 |
| MARENGESSSSWKKQAEDIKKIFEFKETLGTGAFSEVVLAEEKATGKLFAVKCIPKKALKGKESSIENEIAVLRKIKHENIVALEDIYESPNHLYLVMQLVSGGELFDRIVEKGFYTEKDASTLIRQVLDAVYYLHRMGIVHRDLKPENLLYYSQDEESKIMISDFGLSKMEGKGDVMSTACGTPGYVAPEVLAQKPYSKAVDCWSIGVIAYILLCGYPPFYDENDSKLFEQILKAEYEFDSPYWDDISDSAKDFIRNLMEKDPNKRYTCEQAARHPWIAGDTALNKNIHESVSAQIRKNFAKSKWRQAFNATAVVRHMRKLHLGSSLDSSNASVSSSLSLASQKDCLAPSTLCSFISSSSGVSGVGAERRPRPTTVTAVHSGSK [CAMK1D] | 0.0756 | 0.252 | 49.8 °C | 50.3 °C | 0.0619 | -0.0784 |
| MARFALTVVRHGETRFNKEKIIQGQGVDEPLSETGFKQAAAAGIFLNNVKFTHAFSSDLMRTKQTMHGILERSKFCKDMTVKYDSRLRERKYGVVEGKALSELRAMAKAAREECPVFTPPGGETLDQVKMRGIDFFEFLCQLILKEADQKEQFSQGSPSNCLETSLAEIFPLGKNHSSKVNSDSGIPGLAASVLVVSHGAYMRSLFDYFLTDLKCSLPATLSRSELMSVTPNTGMSLFIINFEEGREVKPTVQCICMNLQDHLNGLTETR [TIGAR] | -0.092 | 0.286 | 50.2 °C | 50.3 °C | 0.348 | -0.0797 |
| MARHVFLTGPPGVGKTTLIHKASEVLKSSGVPVDGFYTEEVRQGGRRIGFDVVTLSGTRGPLSRVGLEPPPGKRECRVGQYVVDLTSFEQLALPVLRNADCSSGPGQRVCVIDEIGKMELFSQLFIQAVRQTLSTPGTIILGTIPVPKGKPLALVEEIRNRKDVKVFNVTKENRNHLLPDIVTCVQSSRK [NTPCR] | 1.23 | 0.656 | 52.6 °C | 53.4 °C | 0.569 | 0.0287 |
